Results as given in the supplement of paper PMC12764529.
± gives the half width of the 95% confidence interval.

Legend:
[1] = folding stability dG unfold from trypsin proteolysis; higher = more stable
How it was run: (§1)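 How resistant each design was to proteolysis was captured as K50, inferred by Bayesian fitting of sequencing counts. Unfolding free energy was then derived relative to a sequence-predicted unfolded-state K50 and a shared folded-state K50, per protease or combined. Digestion used trypsin and chymotrypsin at 11 threefold-diluted concentrations plus a no-protease condition, on mini-proteins under 80 residues without cysteine in a PA-tagged cDNA display construct. Designs were kept only when AlphaFold2 dimer inter-PAE was above 15.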

[2] = folding stability dG unfold from chymotrypsin proteolysis; higher = more stable
How it was run: as §1

[3] = folding stability dG unfold (combined trypsin and chymotrypsin); higher = more stable
How it was run: as §1

| Sequence | folding stability dG unfold [1] [kcal/mol] | folding stability dG unfold [2] [kcal/mol] | folding stability dG unfold [3] [kcal/mol] |
| --- | --- | --- | --- |
| SAGGSAGGSAGGFNIKLDVEIDPENYVIKNKLEVRDGGEERRFEMWIPIRVPPADPDDPSAGGSAGGSAGGS [r10_1049_TrROS] | -0.135 ± 0.29 | 1.39 ± 0.27 | 0.852 ± 0.21 |
| SAGGSAGGSAGGFYDPNGKWRIKIKPEVFEFPNYRFIKMKIEVDGRPIMEMPMLIPPNDSAGGSAGGSAGGS [r10_628_TrROS] | 3.41 ± 0.31 | 2.45 ± 0.16 | 2.73 ± 0.34 |
| SAGGSAGGSAGGGELKYRTLTVDLPVDDPDGRKLPRRLVITFPASNPELAEAFLKALGYSAGGSAGGSAGGS [r10_1062_TrMRF] | 1.11 ± 0.012 | 1.75 ± 0.021 | 1.52 ± 0.034 |
| SAGGSAGGSAGGGFYVKEIKGVKFGDKTLYIIRVYDDKGNEVFDVVAPPEVLKNLPPEVLSAGGSAGGSAGG [r7_263_TrMRF] | 1.04 ± 0.015 | 1.79 ± 0.037 | 1.52 ± 0.045 |
| SAGGSAGGSAGGGKVTAVVTFTGPDGSKVVLAFHPDGSVTVRYFDPNGELVGEKTFAGAGSAGGSAGGSAGG [r7_544_TrMRF] | 3.2 ± 0.19 | 4.56 ± 0.1 | 4.27 ± 0.14 |
| SAGGSAGGSAGGGLASEPVEIVEILSVTLVPEANVEVVTVKLPNPGELVTVPASAVPPGLSAGGSAGGSAGG [r7_304_JUSTAS] | 2.07 ± 0.13 | 1.16 ± 0.048 | 1.69 ± 0.085 |
| SAGGSAGGSAGGGMPSVTVTPVTLTVPTEVLVDGGPLLREREVRLTVITYPYTNTVVVDSAGGSAGGSAGGS [r10_533_JUSTAS] | -0.474 ± 0.2 | 0.494 ± 0.16 | 0.23 ± 0.099 |
| SAGGSAGGSAGGGMRTVTTVSSFTFEKNGGEKFVTTTVVVPLYVPPRVFPPPENIELLLLSAGGSAGGSAGG [r17_454_JUSTAS] | 2.45 ± 0.33 | 1.36 ± 0.27 | 1.61 ± 0.26 |
| SAGGSAGGSAGGGMSIEEVKAKIEEEVGVEVSIEKVSGNTYKITLPKNNETYTIKIPKKSAGGSAGGSAGGS [r10_1032_JUSTAS] | 0.396 ± 0.062 | -0.126 ± 0.3 | 0.373 ± 0.25 |
| SAGGSAGGSAGGGMTTTTETTTTTFPTNNLTTTTTTTTTLETSTGTTLSSTSTTTVTASSAGGSAGGSAGGS [r10_469_JUSTAS] | 1.96 ± 0.18 | 0.234 ± 0.12 | 1.2 ± 0.072 |
| SAGGSAGGSAGGGMVLKTEPVVITSTSTAPTEDGKWITTTSTLVVTKELILPSTLPGLLSAGGSAGGSAGGS [r10_1133_JUSTAS] | 0.173 ± 0.028 | 0.276 ± 0.11 | 0.34 ± 0.096 |
| SAGGSAGGSAGGGNMTITVMIPIEIPVFKYDGGKPEFEPFPIYIMVEVTVPEGAPLEEFSAGGSAGGSAGGS [r10_633_TrROS] | 2.1 ± 0.076 | 1.49 ± 0.027 | 1.79 ± 0.068 |
| SAGGSAGGSAGGGNPFLVRTEFFTLPDNTVIRRLAVVHSDGSLSVFPSLLPVPPNSLKLSAGGSAGGSAGGS [r10_280_TrMRF] | 0.412 ± 0.041 | 1.18 ± 0.087 | 0.914 ± 0.053 |
| SAGGSAGGSAGGGRRLVLVKVPPDVPEEVIREFARRLVEEGVPEPVVVERLEDDYALVLVSAGGSAGGSAGG [r7_283_TrMRF] | 0.861 ± 0.21 | 1.23 ± 0.24 | 1.01 ± 0.17 |
| SAGGSAGGSAGGGRTYTFTLPDGTVLTVTADDMTEEEIRAKLEAEGGEIVEITVEPGLSSAGGSAGGSAGGS [r10_572_JUSTAS] | 2.43 ± 0.034 | 2.991 ± 0.018 | 2.86 ± 0.07 |
| SAGGSAGGSAGGGSIVIENPEKGLTLTYDPATGNVTITFPGGERKVSPVGSIEKAKELLSAGGSAGGSAGGS [r10_849_JUSTAS] | 0.787 ± 0.059 | 1.15 ± 0.028 | 1.02 ± 0.06 |
| SAGGSAGGSAGGGSMPLLTETRKSLVVDPETGRLREVTTTTIRFPDRNTSQVTTTVTPVSSAGGSAGGSAGG [r7_196_JUSTAS] | 0.771 ± 0.063 | 0.139 ± 0.081 | 0.41 ± 0.14 |
| SAGGSAGGSAGGGSMPVKEEVIVEVDPTEVPVTLVTTTVVKTYPDGSVEETVTVEVKLVSAGGSAGGSAGGS [r10_598_JUSTAS] | 0.818 ± 0.085 | 0.281 ± 0.059 | 0.777 ± 0.18 |
